To fix the notation:
B1: anti-CI-M6PR VHH7 (VHH)
VHH: QVQLQESGGGLVQPGGSLRLSCAASGIIFSDNRMDWYRQAPGKQREWVATLASYGWKTYADSVKGRFTISRDNTKNTVYLRMNSLKPEDTAVYYCKASSPVLNDIWGQGTQVTVSS
notes: His6-tagged (Pichia pastoris)
B2: anti-CI-M6PR VHH8 (VHH)
VHH: QVQLQESGGGLVQAGGSLRLSCEASGRTFNTYNWGWFRQAPGKEREFVAAIRWSSSKTSYADSVKGRFTISRDNAKNTIYLQMNSLKPEDTAVYYCAASIVDFTTNPSHFGSWGQGTQVTVSS
notes: His6-tagged (Pichia pastoris)
B3: anti-CI-M6PR VHH5 (VHH)
VHH: QVQLQESGGGLVQAGGSLKLSCAAAGRTFSRLAMGWFRQAPGKEREFVAAISENGDSIHYSDSVKGRFAVSRDNAKNTVYLQMNSLKPEDTAIYYCAADRAAYYCSGSGCYPSRAPAAASYDYWGQGTQVTVSS
notes: His6-tagged; made in Pichia pastoris, later also in E. coli WK6
B4: anti-CI-M6PR VHH 1H11 (VHH)
VHH: QVQLQESGGGLVQPGGSLRLSCAASGIIFSDNRMDWYRQAPGKQREWVATLASYGWKTYADSVKDRFTISRDNAKNTVNLYMNSLQPEDTAVYYCNSGQYWGQGTQVTVSS
notes: made in E. coli WK6, His-tag purified
B5: anti-CI-M6PR VHH1 (VHH)
VHH: QVQLQESGGGLVQPGGSLRLSCVASGFTFDRYWMNWLRQIPGKEIEWVSTINTGGTGTYYDDSVKGRFSISRDDAKNTLYLTMNSLKTEDTAVYYCARGATYYRGNSAIRGQGTQVTVSS
notes: as for B3
B6: anti-CI-M6PR VHH3 (VHH)
VHH: QVQLQESGGGLVQPGGSLRLSCAAFGLNFKNFDMIWFRQAPGEERDIVAAISSSSSTIWYEDSVKGRFTISRDNAKNTVYLQMNSLKPEDTAVYYCAAALTSWRRPDYWGQGTQVTVSS
notes: His6-tagged; made in Pichia pastoris
B7: anti-CI-M6PR VHH6 (VHH)
VHH: QVQLQESGGGLVQAGGSLRLSCAVSGSISSIGGMGWFRQAPGKQREFVAVILNNSGMTSYADSVKGRFTISRGNSKNTMYLQMNSLKPEDTAVYYCNYSGYWGQGTQVTVSS
notes: His6-tagged; made in E. coli
B8: anti-CI-M6PR VHH4 (VHH)
VHH: QVQLQESGGGLVQAGGSLRLSCAASGRTFSNYVMGWFRQAPGKEREFVGSISQGGKMTYYPDSVKGRFTISRDNAKNTMYLQMDGLKPEDTAVYYCAVSRGYPMVRVSEVDYWGQGTQVTVSS
notes: as for B6
B9: anti-CI-M6PR VHH10 (VHH)
VHH: QVQLQESGGGSVQAGGSLRLSCAPAGRTFSRIRMGWFRQAPGKEREFVAAISSGGLSYYADSMKGRFTISRDNAKNTVLLQMNSLEPDDTAVYYCAAVLNDYIDDYVARNPTLYDYWGQGTQVTVSS
notes: as for B6
B10: anti-CI-M6PR VHH9 (VHH)
VHH: QVQLQESGGGLVQAGGSLRLSCAASGTILSIKTMGWYRQAPGKEREWVATITSSSIPMYADSVKGRFTISRDDAKNTVYLQMNSLKPEDTGVYYCNAPWTDYWGQGTQVTVSS
notes: as for B6
B11: anti-CI-M6PR VHH11 (VHH)
VHH: QVQLQESGGGLVQAGDSLKLSCTASGPTFSEITGGWFRQVPGKEREFVASISSTGITTYYTDSVKGRFTVSRDNAKNTMYLQMNSLKPEDTGVYYCAARSTSRSIAITVGYDYWGQGTQVTVSS
notes: as for B6

The source of these data is patent US20250263490A1 (VIB VZW, published 2025).

One assay concerns the target T1, recombinant human domain 1-3His6 of the cation-independent mannose-6-phosphate receptor (human, UniProt P11717 41-467).
T1 construct: Biotinylated (NHS-PEG4-biotin) for BLI; Glycosylated; also called hDom1-3His6; hCI-M6PRD1-D3
Kind of assay: ELISA on coated antigen (100 ng), anti-VHH-HRP, A450. The protocol: (§1) To determine the effect of site-directed mutations, an ELISA was performed. To this end, 100 ng of each successfully purified mutant was coated per well on Nunc Maxisorp plates in 50 mM MES, 150 mM NaCl, pH 6.5 buffer overnight at 4° C. […] Coating-only controls were included for background correction. […] Reactions were stopped after five minutes using a 2N H₂SO₄ solution and plates were read at 450 nm, with a 655 nm background correction. Data were analyzed using the GraphPad Prism 9 software.
(In an ELISA, binding on a coated surface is turned into a signal by an enzyme label.)
Take B1: the “EC50 (read off the curve)” value is approximately 0.3 nM.
Regarding B2, the “EC50 (read off the curve)” value was approximately 3 nM.
In the case of B3, the “EC50 (read off the curve)” value is approximately 2 nM.
As for B4, the “EC50 (read off the curve)” value is approximately 0.4 nM.
As for B5, the “EC50 (read off the curve)” value was approximately 10 nM.

Another assay has as its target T2, K89D.
T2 construct: also called human CI-M6PR Dom1-3His6 K89D
T2 chain: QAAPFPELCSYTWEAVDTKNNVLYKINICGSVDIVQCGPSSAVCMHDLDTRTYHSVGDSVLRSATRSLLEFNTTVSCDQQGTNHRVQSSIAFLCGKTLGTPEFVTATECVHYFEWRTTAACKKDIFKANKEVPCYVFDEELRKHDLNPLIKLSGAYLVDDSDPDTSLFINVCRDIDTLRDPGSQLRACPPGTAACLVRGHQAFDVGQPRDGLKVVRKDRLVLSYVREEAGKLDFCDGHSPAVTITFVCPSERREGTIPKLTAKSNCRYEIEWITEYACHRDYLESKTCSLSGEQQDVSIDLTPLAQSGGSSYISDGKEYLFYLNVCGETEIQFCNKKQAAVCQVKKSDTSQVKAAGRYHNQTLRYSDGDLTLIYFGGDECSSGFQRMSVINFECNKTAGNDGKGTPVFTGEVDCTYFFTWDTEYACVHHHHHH
The description is as above. As to the method:
as §1
With B2, the half-maximal effective concentration (EC50 (read off the curve)) is approximately 3 nM.
On to B3, for which the “EC50 (read off the curve)” value is approximately 2 nM.
For the molecule B4, the half-maximal effective concentration (EC50 (read off the curve)) is approximately 0.7 nM.

The target of another assay is T1, recombinant human domain 1-3His6 of the …. As to the kind of experiment: BLI exp 2, dissoc pH 5.5. As to the method: (§2) For each of the 11 anti-CI-M6PR VHHs, a biolayer interferometry (BLI) experiment was performed in which the hDom₁₋₃His₆ was biotinylated and coupled to streptavidin biosensor tips. Afterwards, the tips were incubated with serially diluted VHHs during the association phase and dissociation was performed at pH 7.4. Similarly, dissociation was performed at pH 7.0, pH 6.0 and pH 5.0 as well after regeneration of the biosensor tips. […] The anti-CI-M6PR antibody (clone 2G11) and GBP were used as positive and negative controls, respectively.
Analysis of the binding kinetics was performed using an Octet Red96 (FortéBio) device with Streptavidin SA Biosensor tips (VWR, 733-2145). To this end, 1 mL of hCI-M6PR_D1-D3 (0.5 mg/mL in 50 mM MES, 150 mM NaCl, pH 6.5) was incubated at room temperature for 30 minutes with a two-fold molar excesses of EZ-Link™ NHS-PEG₄-Biotin (Thermo Fischer, A39259) and NaHCO₃ (100 mM, pH 8.3). Biotinylated hCIMPR_D1-D3 was purified using a Zeba spin desalting column (Thermo Fischer, 89890) and protein concentration was calculated by measuring the absorbance at 280 nm (extinction coefficient 50320 M¹ cm⁻¹). Two-fold biotin-labelled antigen was loaded on the tips (2.5 μg/mL) and subsequently dipped into a particular anti-CI-M6PR VHH-containing solution (ranging from 0-100 nM). Serial VHH dilutions were made in kinetics buffer (0.2 M Na₂HPO₄, 0.1 M Na⁺ citrate, 0.01% BSA, 0.002% Tween20, pH 7.4). After association (100 sec), dissociation was conducted (500 sec) for each anti-CI-M6PR VHH in the kinetics buffer, followed by biosensor regeneration in glycine (10 mM, pH 3) and neutralisation. The same cycle was repeated with dissociation performed in kinetics buffer of pH 7.0, 6.5, 6.0, 5.5, and 5.0.
A reference well and reference sensors were subtracted from ligand sensors afterwards and Savitsky-Golay filtering was applied on the data. Fitting of the data was performed using a 1:1 model, grouped per dissociation pH.
Turning to B1, the koff was 0.027 s⁻¹ and the kon is 35000 M⁻¹ s⁻¹.
Consider B2, for which the koff was determined as 0.0025 s⁻¹ and the on-rate constant (kon) came to 1.9e+08 M⁻¹ s⁻¹.
For B5, in that order: 0.04 s⁻¹ and 47000 M⁻¹ s⁻¹.

Another assay has the same target. Kind of assay: BLI exp 1, dissoc pH 6. As to the method: as §2
Analysis of the binding kinetics was performed using an Octet Red96 (FortéBio) device with Streptavidin SA Biosensor tips (VWR 733-2145). Therefore, 1 mL of human domain₁₋₃His₆ (0.5 mg/mL in 50 mM MES, 150 mM NaCl, pH 6.5) was incubated at room temperature for 30 minutes with EZ-Link™ NHS-PEG4-Biotin (1 mg) (Thermo Fischer A39259) and NaHCO₃ (100 mM). Biotinylated human domain₁₋₃His₆ was purified using a Zeba spin desalting Column™ (7K MWCO, 2 mL, Thermo Fischer 89890) and 1 μg/mL was used for immobilization on the Streptavidin SA Biosensor tips. The loaded tips were dipped into a particular anti-CI-M6PR VHH solution, serially diluted in kinetics buffer (0.2M NaH₂PO₄, 0.1M Na⁺ citrate, 0.01% BSA, 0.002% Tween20, pH 7.4). This was followed by dissociation of the particular anti-CI-M6PR VHH in kinetics buffer of pH 7.4, followed by regeneration in Glycine (10 mM, pH 3) and neutralisation. Same cycle was repeated but the dissociation was performed at pH 7.0, 6.0, 5.0, 4.5 and 4.0. A reference well and reference sensors were subtracted from ligand sensors afterwards and Savitsky-Golay filtering was applied on the data. Fitting of the data was performed using a 1:1 model, grouped per pH of dissociation.
Regarding B6, the Kd is 0.27 nM, the koff is 0.000851 s⁻¹ and the on-rate (kon) is 3.16e+06 M⁻¹ s⁻¹.
On to B7, for which the Kd was determined as 1.56 nM, the koff was found to be 0.00242 s⁻¹ and the kon was found to be 1.55e+06 M⁻¹ s⁻¹.
For B8, the dissociation constant Kd was found to be 3.18 nM, the koff amounted to 0.00101 s⁻¹ and the kon was 316000 M⁻¹ s⁻¹.
B9: the koff was found to be 0.00205 s⁻¹ and the kon was found to be 39100 M⁻¹ s⁻¹.
Regarding B10, the Kd came out at 0.674 nM, the koff is 0.00122 s⁻¹ and the kon was determined as 1.81e+06 M⁻¹ s⁻¹.
As to B1, the Kd amounted to 8.75 nM, the koff worked out at 0.0321 s⁻¹ and the on-rate (kon) is 3.67e+06 M⁻¹ s⁻¹.
Take B2: the Kd was found to be 12.7 nM, the koff worked out at 0.00293 s⁻¹ and the kon came out at 231000 M⁻¹ s⁻¹.
Consider B3, for which the equilibrium dissociation constant (Kd) was determined as 0.0111 nM, the koff amounted to 1.52e-05 s⁻¹ and the on-rate constant (kon) worked out at 1.38e+06 M⁻¹ s⁻¹.
For B11, the dissociation constant (Kd) amounted to 34.2 nM, the koff worked out at 0.00665 s⁻¹ and the kon worked out at 195000 M⁻¹ s⁻¹.
As to B5, the Kd was 12.7 nM, the off-rate (koff) was approximately 0.0165 s⁻¹ and the kon worked out at 1.3e+06 M⁻¹ s⁻¹.

A further assay shares this target. As to the kind of experiment: ELISA on coated human CI-M6PRD1-D3, non-linear fit of the curves of FIG 36A. As to the method:
FIGS. 36A-C. […] (FIG. 36A) ELISA assay in which each construct was serially diluted and incubated on human CI-M6PR_D1-D3 and the detected absorbance (Abs) at 450 nm was set out in function of concentration. […] Graphs created in Graphpad Prism 9.0.0.
For the molecule B1, the EC50 was 0.45 nM.
On to B2, for which the concentration giving a half-maximal response (EC50) turned out to be 0.16 nM.
On to B3, for which the EC50 was determined as 65 nM.
For B5, the EC50 came to 19 nM.

For another assay the target is unchanged. As to the kind of experiment: BLI exp 2, dissoc pH 7.
As for B6, the koff was determined as 0.000844 s⁻¹ and the kon was 53000 M⁻¹ s⁻¹.
For the molecule B7, the koff stood at 0.00242 s⁻¹ and the kon turned out to be 392000 M⁻¹ s⁻¹.
In the case of B8, the koff was determined as 0.00101 s⁻¹ and the kon amounted to 316000 M⁻¹ s⁻¹.
As to B9, the dissociation rate constant (koff) is 0.00148 s⁻¹ and the kon worked out at 99300 M⁻¹ s⁻¹.
The like results for B10 were, in that order, 0.00051 s⁻¹ and 379000 M⁻¹ s⁻¹.
For the molecule B1, the off-rate constant (koff) amounted to 0.013 s⁻¹ and the association rate constant (kon) came to 130000 M⁻¹ s⁻¹.
As for B2, the koff is 0.000976 s⁻¹ and the kon came to 404000 M⁻¹ s⁻¹.
For the molecule B3, the dissociation rate constant (koff) was found to be 0.00019 s⁻¹ and the on-rate constant (kon) was determined as 1.5e+06 M⁻¹ s⁻¹.
With B11, the off-rate (koff) turned out to be 0.00394 s⁻¹ and the on-rate constant (kon) came to 194000 M⁻¹ s⁻¹.
With B5, the koff came out at 0.0021 s⁻¹ and the kon worked out at 1.5e+06 M⁻¹ s⁻¹.

By EC50 (read off the curve) is commonly meant the concentration that produces a half-maximal response. As usually defined, the koff is a measure of how fast the partners let go of each other. By kon is commonly meant the rate constant with which the complex forms. The Kd is the concentration at which binding is half-saturated. For orientation: EC50 means the concentration that produces a half-maximal response.
